For this experiment, the target named is T1, GFP-PSD-95 (green fluorescent protein-tagged postsynaptic density-95) (UniProt P31016 1-724).
T1 construct: postsynaptic density-95 (PSD-95); Printed as GFP-PSD-95 in the results and PSD-95-GFP in the methods; also called PSD-95-GFP; source: HEK293T, transfected, in lysate
Put plainly: co-IP; HEK293T cells cotransfected with HA-Prickle2 and GFP-PSD-95, with or without FLAG-Vangl2 WT or ΔETSV; IP of the lysate with α-GFP Abs, western blot; 1% NP-40, 150 mM NaCl, 50 mM Tris-Cl pH 7.5, 2 mM EDTA, 10% glycerol, on ice or at 4 °C; precipitated Prickle2 (IP/Input) divided by the relative amount of precipitated PSD-95-GFP. To be noted: partners not purified.

T1 sequence (P31016 whole entry): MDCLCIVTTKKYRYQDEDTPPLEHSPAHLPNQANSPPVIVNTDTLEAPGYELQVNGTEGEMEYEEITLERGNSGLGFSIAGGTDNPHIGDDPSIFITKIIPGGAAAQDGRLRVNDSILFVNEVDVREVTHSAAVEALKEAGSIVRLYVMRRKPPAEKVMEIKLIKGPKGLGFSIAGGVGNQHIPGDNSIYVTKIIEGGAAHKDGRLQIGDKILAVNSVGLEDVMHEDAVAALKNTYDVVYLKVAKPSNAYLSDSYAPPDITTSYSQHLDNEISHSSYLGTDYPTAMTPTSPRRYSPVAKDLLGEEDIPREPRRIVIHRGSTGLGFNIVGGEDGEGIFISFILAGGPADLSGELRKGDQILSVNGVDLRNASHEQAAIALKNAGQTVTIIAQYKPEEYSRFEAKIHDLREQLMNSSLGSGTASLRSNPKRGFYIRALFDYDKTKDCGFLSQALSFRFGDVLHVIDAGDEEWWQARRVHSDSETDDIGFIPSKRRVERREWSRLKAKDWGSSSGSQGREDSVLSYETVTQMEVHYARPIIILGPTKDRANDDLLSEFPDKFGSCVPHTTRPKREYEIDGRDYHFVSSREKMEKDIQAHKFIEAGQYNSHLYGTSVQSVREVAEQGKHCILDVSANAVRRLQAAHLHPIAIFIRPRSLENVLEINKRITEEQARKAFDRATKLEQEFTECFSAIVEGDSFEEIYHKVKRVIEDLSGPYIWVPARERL

B1: hemagglutinin (HA)-Prickle2 (natural protein, UniProt Q80Y24 1-845, looked up)
chain: MVTVMPLEMEKTISKLMFDFQRSSTSDDDSGCALEEYAWVPPGLKPEQVHQYYSCLPEEKVPYVNSAGEKLRIKQLLHQLPPHDNEVRYCNSLDEEEKRELKLFSNQRKRENLGRGNVRPFPVTMTGAICEQCGGQIKGGDIAVFASRAGHGICWHPPCFVCTVCNELLVDLIYFYQDGKIYCGRHHAECLKPRCAACDEIIFADECTEAEGRHWHMRHFCCFECETVLGGQRYIMKEGRPYCCHCFESLYAEYCDTCAQHIGIDQGQMTYDGQHWHATETCFCCAHCKKSLLGRPFLPKQGQIFCSRACSAGEDPNGSDSSDSAFQNARAKESRRSAKIGKNKGKTEEAMLNQHSQLQVSSNRLSADVDPLSVQMDLLSLSSQTPSLNRDPIWRSREEPFHYGNKMEQNQSQSPLQLLSQCNIRTSYSPGGQGAGAQPDMWAKHFSNPKRSSSMALKGHGGSFIQECREDYYPGRLMSQESYSDMSSQSFNETRGSIPVPKYEEEEEEEEGGISTQQCRPRRPLSSLKYTEDMTPTEQTPRGSMESLALSNATGLSAEGGAKRQEHLSRFSMPDLSKDSGMNVSEKLSNMGTLNSSMQFRSAESVRSLLSAQQYQEMEGNLHQLSNPLGYRDLQSHGRMHQSFDFDGGIASSKLPGQEGVHIQPMSERTRRRTTSRDDNRRFRPHRSRRSRRSRSDNALHLASEREVIARLKERPPLRAREDYDQFMRQRSFQESLGQGSRRDLYSQCPRTVSDLALQNAFGERWGPYFTEYDWCSTCSSSSESDNEGYFLGEPIPQPARLRYVTSDELLHKYSSYGVPKSSTLGGRGQLHSRKRQKSKNCIIS
notes: Prickle2; source: HEK293T, transfected, in lysate
Consider B1, for which the “fold increase of the precipitated amount of Prickle2 with FLAG-Vangl2 co-expressed, against without Vangl2” value worked out at 63.6 fold.

These data come from PMC4530445, “PDZ interaction of Vangl2 links PSD-95 and Prickle2 but plays only a limited role in the synaptic localisation of Vangl2” (Scientific Reports, 2015).
